Measurements published in patent US20240002531A1 (ONO PHARMACEUTICAL, published 2024).

How the values were obtained:
[1] = target: T1, HER2-K615A expressed on CHO-K1 cells (human, UniProt P04626 23-1255); test: flow cytometry on CHO-K1 cells expressing HER2-K615A
T1 construct: also called K615A point mutant; not shown: PA tag at the N terminus; RAP tag and MAP tag at the C terminus

[2] = target: T2, W614A peptide (HER2 603-622 with W614A) (human); test: SPR Biacore, mAb on chip, peptide analyte (ka N.D.)
T2 peptide: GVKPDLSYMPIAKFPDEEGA

[3] = target: T3, HER2 peptide p603-622 (amino acids 603 to 622 of human HER2) (human); test: SPR Biacore, mAb on chip, peptide analyte, 1:1 fit
T3 construct: Synthetic peptide; also called wild-type HER2 peptide
T3 peptide: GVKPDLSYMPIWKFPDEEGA

HER2 peptide p609-620 = target: T4, HER2 peptide p609-620 (human); test: SPR Biacore, mAb on chip, peptide analyte, 1:1 fit
T4 peptide: SYMPIWKFPDEE

HER2 peptide p612-622 = target: T5, HER2 peptide p612-622 (human); test: SPR Biacore, mAb on chip, peptide analyte, 1:1 fit
T5 peptide: PIWKFPDEEGA

HER2 peptide p613-621 = target: T6, HER2 peptide p613-621 (human); test: SPR Biacore, mAb on chip, peptide analyte, 1:1 fit
T6 peptide: IWKFPDEEG

HER2 peptide p613-618 = target: T7, HER2 peptide p613-618 (human); test: SPR Biacore, mAb on chip, peptide analyte, 1:1 fit
T7 peptide: IWKFPD

HER2 peptide p612-619 = target: T8, HER2 peptide p612-619 (human); test: SPR Biacore, mAb on chip, peptide analyte, 1:1 fit
T8 peptide: PIWKFPDE

HER2 peptide p613-620 = target: T9, HER2 peptide p613-620 (human); test: SPR Biacore, mAb on chip, peptide analyte, 1:1 fit
T9 peptide: IWKFPDEE

HER2 peptide p613-622 = target: T10, HER2 peptide p613-622 (human); test: SPR Biacore, mAb on chip, peptide analyte, 1:1 fit
T10 peptide: IWKFPDEEGA

HER2 peptide p610-618 = target: T11, HER2 peptide p610-618 (human); test: SPR Biacore, mAb on chip, peptide analyte, 1:1 fit
T11 peptide: YMPIWKFPD

HER2 peptide p609-622 = target: T12, HER2 peptide p609-622 (human); test: SPR Biacore, mAb on chip, peptide analyte, 1:1 fit
T12 peptide: SYMPIWKFPDEEGA

HER2 peptide p609-619 = target: T13, HER2 peptide p609-619 (human); test: SPR Biacore, mAb on chip, peptide analyte, 1:1 fit
T13 peptide: SYMPIWKFPDE

HER2 peptide p611-618 = target: T14, HER2 peptide p611-618 (human); test: SPR Biacore, mAb on chip, peptide analyte, 1:1 fit
T14 peptide: MPIWKFPD

HER2 peptide p612-621 = target: T15, HER2 peptide p612-621 (human); test: SPR Biacore, mAb on chip, peptide analyte, 1:1 fit
T15 peptide: PIWKFPDEEG

HER2 peptide p609-621 = target: T16, HER2 peptide p609-621 (human); test: SPR Biacore, mAb on chip, peptide analyte, 1:1 fit
T16 peptide: SYMPIWKFPDEEG

HER2 peptide p611-622 = target: T17, HER2 peptide p611-622 (human); test: SPR Biacore, mAb on chip, peptide analyte, 1:1 fit
T17 peptide: MPIWKFPDEEGA

HER2 peptide p614-619 = target: T18, HER2 peptide p614-619 (human); test: SPR Biacore, mAb on chip, peptide analyte, 1:1 fit
T18 peptide: WKFPDE

HER2 peptide p613-619 = target: T19, HER2 peptide p613-619 (human); test: SPR Biacore, mAb on chip, peptide analyte, 1:1 fit
T19 peptide: IWKFPDE

[4] = target: T20, L608A peptide (HER2 603-622 with L608A) (human); test: SPR Biacore, mAb on chip, peptide analyte, 1:1 fit;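 also: binding measured at 25 °C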
T20 peptide: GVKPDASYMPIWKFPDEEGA

[5] = target: T21, HER2-W614A expressed on CHO-K1 cells (human, UniProt P04626 23-1255); test: flow cytometry on CHO-K1 cells expressing HER2-W614A
T21 construct: also called W614A point mutant; not shown: PA tag at the N terminus; RAP tag and MAP tag at the C terminus

[6] = target: T22, F616A peptide (HER2 603-622 with F616A) (human); test: SPR Biacore, mAb on chip, peptide analyte, equilibrium analysis
T22 peptide: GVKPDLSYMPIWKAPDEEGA

[7] = target: T23, K615A peptide (HER2 603-622 with K615A) (human); test: as above
T23 peptide: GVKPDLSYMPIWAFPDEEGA

[8] = target: T2, W614A peptide (HER2 603-622 with W614A); test: as above
[9] = target: T24, I613A peptide (HER2 603-622 with I613A) (human); test: as above
T24 construct: also called 1613A
T24 peptide: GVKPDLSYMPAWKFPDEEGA

B1: H2Mab-250 antibody (antibody, V domains shown)
VH: EVQLVESGGGLVQPGGSLKLSCAASGFTFSNYGMSWVRQTPDRRLELVATINNNGGGTYYPDSVKGRFTISRDNAKNTLYLQMSSLKSEDTAMYYCTSPGLLWDAWGAGTTVTVSS
VL: not shown
notes: Mouse monoclonal from a hybridoma (immunogen HER2ec made in LN229 cells); also called antibody of the present invention
binding result [1]: binds
koff [2]: 0.00438 s⁻¹
Kd [3]: 3.67 nM
koff [3]: 0.00033 s⁻¹
kon [3]: 90100 M⁻¹ s⁻¹
Kd (HER2 peptide p609-620): 1.24 nM
koff (HER2 peptide p609-620): 0.000291 s⁻¹
kon (HER2 peptide p609-620): 234000 M⁻¹ s⁻¹
Kd (HER2 peptide p612-622): 3.74 nM
koff (HER2 peptide p612-622): 0.000724 s⁻¹
kon (HER2 peptide p612-622): 194000 M⁻¹ s⁻¹
Kd (HER2 peptide p613-621): 10.5 nM
koff (HER2 peptide p613-621): 0.00343 s⁻¹
kon (HER2 peptide p613-621): 325000 M⁻¹ s⁻¹
Kd (HER2 peptide p613-618): 4.45 nM
koff (HER2 peptide p613-618): 0.00289 s⁻¹
kon (HER2 peptide p613-618): 649000 M⁻¹ s⁻¹
Kd (HER2 peptide p612-619): 3.36 nM
koff (HER2 peptide p612-619): 0.000841 s⁻¹
kon (HER2 peptide p612-619): 250000 M⁻¹ s⁻¹
Kd (HER2 peptide p613-620): 13.1 nM
koff (HER2 peptide p613-620): 0.00371 s⁻¹
kon (HER2 peptide p613-620): 283000 M⁻¹ s⁻¹
Kd (HER2 peptide p613-622): 14 nM
koff (HER2 peptide p613-622): 0.00346 s⁻¹
kon (HER2 peptide p613-622): 247000 M⁻¹ s⁻¹
Kd (HER2 peptide p610-618): 0.599 nM
koff (HER2 peptide p610-618): 0.000225 s⁻¹
kon (HER2 peptide p610-618): 376000 M⁻¹ s⁻¹
Kd (HER2 peptide p609-622): 1.57 nM
koff (HER2 peptide p609-622): 0.00033 s⁻¹
kon (HER2 peptide p609-622): 210000 M⁻¹ s⁻¹
Kd (HER2 peptide p609-619): 1.2 nM
koff (HER2 peptide p609-619): 0.000293 s⁻¹
kon (HER2 peptide p609-619): 244000 M⁻¹ s⁻¹
Kd (HER2 peptide p611-618): 0.869 nM
koff (HER2 peptide p611-618): 0.00031 s⁻¹
kon (HER2 peptide p611-618): 356000 M⁻¹ s⁻¹
Kd (HER2 peptide p612-621): 3.49 nM
koff (HER2 peptide p612-621): 0.000683 s⁻¹
kon (HER2 peptide p612-621): 196000 M⁻¹ s⁻¹
Kd (HER2 peptide p609-621): 1.17 nM
koff (HER2 peptide p609-621): 0.000289 s⁻¹
kon (HER2 peptide p609-621): 247000 M⁻¹ s⁻¹
Kd (HER2 peptide p611-622): 2.02 nM
koff (HER2 peptide p611-622): 0.000378 s⁻¹
kon (HER2 peptide p611-622): 187000 M⁻¹ s⁻¹
Kd (HER2 peptide p614-619): 1380 nM
koff (HER2 peptide p614-619): 0.00118 s⁻¹
kon (HER2 peptide p614-619): 854 M⁻¹ s⁻¹
Kd (HER2 peptide p613-619): 10.3 nM
koff (HER2 peptide p613-619): 0.0041 s⁻¹
kon (HER2 peptide p613-619): 397000 M⁻¹ s⁻¹

B2: H2Mab-214 antibody (antibody, V domains shown)
VH: QVTLKESGPGILQPSQTLSLTCSFSGFSLSTSGMGVSWIRQPSGKGLEWLAHIFWDDDKRYNPSLKSRLTISKDTSRNKVFLKITSVDTADTATYYCARRVVATDWYFDVWGAGTTVTVSS
VL: DIVLTQSPASLAVSLGQRATISCRASESVEYYGTTLMQWYQQKPGQPPKLLIYAASKVESGVPARFSGSGSGTDFSLNIHPVEEDDVAMYFCQQSRKVPLTFGAGTKLELKR
notes: as for B1
Kd [4]: 48.7 nM
koff [4]: 0.00739 s⁻¹
kon [4]: 152000 M⁻¹ s⁻¹
binding result [5]: binds
Kd [6]: 410000 nM
Kd [7]: 578000 nM
Kd [8]: 1460 nM
Kd [9]: 39300 nM
